This experiment relates to IFNβ production by DCs. The experiment in a line: IFNβ levels produced by poly(I:C)-matured DCs (ELISA). It is filed as cell-based, human. To be noted: poly(I:C)-matured DCs pre-exposed, 16 h. On the procedure: Immature DCs were incubated with MMP-2 (0.5 μg/mL or 5 μg/mL) and poly(I:C)-matured 1 h later. IL-12 levels were measured 16 h later. (A) Results are represented as a percentage of IL-12p70 levels, measured by CBA, produced when DCs were incubated with poly(I:C) only (n=11). (B) For intracellular staining of IL-12p35 and IL-12p40 chains, Brefeldin A was added 4 h after poly(I:C) activation and cells were stained after an additional 12 h incubation. Numbers in the upper right quadrants are the percentages of each population for a representative donor (n=3). (C,D) Immature DCs were incubated with MMP-2 for 1 h (5 μg/mL) before poly(I:C) maturation. Intracellular staining of phosphorylated (Y701) STAT1 (P-STAT1) was performed 3 h later. […] IFNβ levels were measured by ELISA 16 h later. […] IFNAR1 protein expression was detected the next day by Western blot analysis using a rabbit monoclonal antibody. […]
Enzyme-linked immunosorbent assay Activation of T cell clones (10,000 cells/100 μL/well), polyclonal T cell populations (100,000 cells/100 μL/well), DCs (50,000 cells/100 μL/well) and basophils (10,000 cells/100 μL/well) was determined by ELISA. IFNγ (BioSource), TNFα (BioSource), IL-4 (BioSource), TSLP (Quantikine; R&D Systems), IFNβ (VeriKine; PBL interferon source) and MCP-3 (DuoSet; R&D Systems) contents in supernatants were measured according to the manufacturer's instructions.
On the technique in general: In an ELISA, binding on a coated surface is turned into a signal by an enzyme label.

B1: active MMP-2: Purified human MMP-2 (mixture of the proenzyme (50%) and the active form (50%)) purchased from Biomol (protein, listed as Homo sapiens)
chain: MEALMARGALTGPLRALCLLGCLLSHAAAAPSPIIKFPGDVAPKTDKELAVQYLNTFYGCPKESCNLFVLKDTLKKMQKFFGLPQTGDLDQNTIETMRKPRCGNPDVANYNFFPRKPKWDKNQITYRIIGYTPDLDPETVDDAFARAFQVWSDVTPLRFSRIHDGEADIMINFGRWEHGDGYPFDGKDGLLAHAFAPGTGVGGDSHFDDDELWTLGEGQVVRVKYGNADGEYCKFPFLFNGKEYNSCTDTGRSDGFLWCSTTYNFEKDGKYGFCPHEALFTMGGNAEGQPCKFPFRFQGTSYDSCTTEGRTDGYRWCGTTEDYDRDKKYGFCPETAMSTVGGNSEGAPCVFPFTFLGNKYESCTSAGRSDGKMWCATTANYDDDRKWGFCPDQGYSLFLVAAHEFGHAMGLEHSQDPGALMAPIYTYTKNFRLSQDDIKGIQELYGASPDIDLGTGPTPTLGPVTPEICKQDIVFDGIAQIRGEIFFFKDRFIWRTVTPRDKPMGPLLVATFWPELPEKIDAVYEAPQEEKAVFFAGNEYWIYSASTLERGYPKPLTSLGLPPDVQRVDAAFNWSKNKKTYIFAGDKFWRYNEVKKKMDPGFPKLIADAWNAIPDNLDAVVDLQGGGHSYFFKGAYYLKLENQSLKSVKFGSIKSDWLGC
Consider B1, for which the IFNβ levels result is listed as “decreased levels”.

The record behind these values is patent US9395368B2, “Methods, agents and peptides for inducing an immune response to matrix metalloproteinase-2 expressing tumors” (New York University, priority 2010, dated 2016).
